Laboratory results taken from publication PMC7417313, “Characterization of Binding Properties of Individual Functional Sites of Human Complement Factor H” (Frontiers in Immunology, 2020).

Molecular target: T1, C3b (human)
T1 construct: human complement C3, beta chain, as in C3b; human complement C3, alpha' chain of C3b (alpha chain without C3a); Mr 176,000 used; also called soluble C3b; fluid phase C3b
Assay: SPR; His-tagged rH fragment held on a Ni-charged NTA chip (BIAcore X or 3000; 500-1,000 RU, reloaded for each injection), C3 protein injected in HBS-P (10 mM HEPES pH 7.4, 150 mM NaCl, 0.005% P20) at 5 μL/min, 25°C; reference cell with nickel only; equilibrium levels fitted to a one-site equation
Conditions: both partners purified

Kd: 15 µM
B1: recombinant Factor H fragment rH 6-15 (domain or fragment)
chain: PCDYPDIKHGGLYHENMRRPYFPVAVGKYYSYYCDEHFETPSGSYWDHIHCTQDGWSPAVPCLRKCYFPYLENGYNQNYGRKFVQGKSIDVACHPGYALPKAQTTVTCMENGWSPTPRCIRVKTCSKSSIDIENGFISESQYTYALKEKAKYQCKLGYVTADGETSGSITCGKDGWSAQPTCIKSCDIPVFMNARTKNDFTWFKLNDTLDYECHDGYESNTGSTTGSIVCGYNGWSDLPICYERECELPKIDVHLVPDRKKDQYKVGEVLKFSCKPGFTIVGPNSVQCYHFGLSPDLPICKEQVQSCGPPPELLNGNVKEKTKEEYGHSEVVEYYCNPRFLMKGPNKIQCVDGEWTTLPVCIVEESTCGDIPELEHGWAQLSSPPYYYGDSVEFNCSESFTMIGHRSITCIHGVWTQLPQCVAIDKLKKCKSSNLIILEEHLKNKKEFDHNSNIRYRCRGKEGWIHTVCINGRWDPEVNCSMAQIQLCPPPPQIPNSHNMTTTLNYRDGEKVSVLCQENYLIQEGEEITCKDGRWQSIPLCVEKIPCSQPPQIEHGTINSSRSSQESYAHGTKLSYTCEGGFRISEENETTCYMGKWSSPPQCEG
modifications: Limits from Sushi 6 start to Sushi 15 end (928 by convention, as the candidate feature list is cut off after Sushi 12). Residue 402 is set to Tyr as printed (Y402 variant), whichever allele the entry
